Measured values: paper PMC11746035 (Frontiers in Immunology, 2024)

Target: T1, SARS-CoV-2 WT RBD (SARS-CoV-2, WT (ancestral) strain, UniProt P0DTC2)
T1 construct: also called wild-type L452 RBD
Experiment: BLI; antibody (IgG1, 11 μg/mL) loaded on AHC2 biosensor to about 1.5 nm; RBD in solution, association 300 s, dissociation 600 s; PBS-TB (PBS, 0.02% v/v Tween-20, 0.1% w/v BSA); 25°C; 1,000 rpm; binding response less than 0.1 considered non-binding
Details: both partners purified

Row | Binder | binding result
1 | BD56-595 (antibody, V domains shown, heavy chain of BD56-595 (IGHV2-5*02, D56), not modified; light chain of BD56-595; IgG1; source: Expi 293, transfected, purified (protein A)) VH: QITLKESGPTLVKPTQTLTLTCTFSGFSITTAGVGVGWIRQPPGKALEWLALIYWDGDRRYSPSLKNRVDITTDISKNQVVLTMTNMAPVDTATYYCAQHTIDMILDYWGQGTLVTVSS VL: QSALTQPPSASGSPGQSVTISCTATSSDVGAYNYVSWYQQHPGKAPKLMIYEVNKRPSGVPDRFSGSKSGNTASLTVSGLQAEDEADYYCSSYTDNIVFGTGTRVTVL | binds
2 | LY-CoV1404 (antibody, V domains shown, heavy chain of LY-CoV1404 (IGHV2-5*02, D56), not modified; variable region in PDB 7MMO; light chain of LY-CoV1404; IgG1; source: Expi 293, transfected, purified (protein A)) VH: QITLKESGPTLVKPTQTLTLTCTFSGFSLSISGVGVGWLRQPPGKALEWLALIYWDDDKRYSPSLKSRLTISKDTSKNQVVLKMTNIDPVDTATYYCAHHSISTIFDHWGQGTLVTVSS VL: QSALTQPASVSGSPGQSITISCTATSSDVGDYNYVSWYQQHPGKAPKLMIFEVSDRPSGISNRFSGSKSGNTASLTISGLQAEDEADYYCSSYTTSSAVFGGGTKLTVL | binds
3 | XGv-265 (antibody, V domains shown, heavy chain of XGv-265 (IGHV2-5*02, D56), not modified; light chain of XGv-265; IgG1; source: Expi 293, transfected, purified (protein A)) VH: QITLKESGPTLVKPTQTLTLTCNFSGFSLNTYGVGVGWIRQPPGKALEWLALIYWDGDERYGPFFKNKVTIAKDTSKNQVVLTMTNMDPVDTATYYCARHLIPTIFDYWGQGTLVTVSS VL: QSALTQPASVSGSPGQSITISCTGTSSDVGGSNYVSWYQHHPDRAPKLLIYEVTNRPSGVSNRFSGSKSANTASLTISGLQAEDEADYYCSSYTTTSTHILFGGGTKLTV | binds
4 | BD56-1290 (antibody, V domains shown, heavy chain of BD56-1290 (IGHV2-5*02, D56), not modified; light chain of BD56-1290; IgG1; source: Expi 293, transfected, purified (protein A)) VH: QITLKESGPTLVKPTQTLTLTCTFSGFSLSTSGVGVGWIRQPPGKALEWLALIYWDDDSRYSPSLKTRLTITKDTSKNQVVLTLTNMDPVDTATYYCGHFTIDMIVGYWGQGTLVTVSS VL: QSALTQPASVSGSPGQSITISCTATSIDVGAFHYVSWYQHHPGKAPKLIIFDVTNRPSGVSNRFSGSKSGNTASLTISGLQAEDEADYYCSSYTDSTVVFGGGTKLTVL | binds
5 | BD57-028 (antibody, V domains shown, heavy chain of BD57-028 (IGHV2-5*02, D56), not modified; light chain of BD57-028; IgG1; source: Expi 293, transfected, purified (protein A)) VH: QITLKESGPTLVKPTQTLTLTCTFSGFSLSASGEGMGWIRQPPGKALEWLALIYWDADERYSPSLRSRLTITKDTSKNQVVLKMTNMNPVDTATYYCAHHSITTVVDYWGQGMLVTVSS VL: QSALTQPASVSGSPGQSITISCTGTISDVGAFNYVSWYQQHPGRAPKLIIYDVSTRPSGISIRFSGSKSGNTASLTISGLQPEDEADYYCSSYSHTSLVFGTGTKVTVL | binds
